What was measured:
[1] = molecular target: T1, LXR/RXR heterodimer (LXRalpha (NR1H3)/RXR; isoforms in EMSA not stated) (UniProt Q9Z0Y9;P28700 Q9Z0Y9:1-445,P28700:1-467); experiment: EMSA; binding competed by excess unlabeled Mylip LXRE; protein source not stated; settings: label: radiolabeled
T1 sequence 1: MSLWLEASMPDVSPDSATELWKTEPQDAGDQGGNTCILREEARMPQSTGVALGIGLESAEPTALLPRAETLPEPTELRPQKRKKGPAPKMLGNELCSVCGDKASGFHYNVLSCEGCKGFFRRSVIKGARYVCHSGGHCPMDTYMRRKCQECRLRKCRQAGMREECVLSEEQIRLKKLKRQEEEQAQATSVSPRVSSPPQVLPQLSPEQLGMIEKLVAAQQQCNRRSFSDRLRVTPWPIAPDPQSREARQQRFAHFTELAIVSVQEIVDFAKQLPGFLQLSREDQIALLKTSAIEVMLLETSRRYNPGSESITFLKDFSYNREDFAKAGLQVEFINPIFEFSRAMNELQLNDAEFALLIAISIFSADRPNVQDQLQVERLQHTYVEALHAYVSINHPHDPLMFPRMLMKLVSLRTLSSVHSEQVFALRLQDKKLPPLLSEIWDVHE
T1 sequence 2: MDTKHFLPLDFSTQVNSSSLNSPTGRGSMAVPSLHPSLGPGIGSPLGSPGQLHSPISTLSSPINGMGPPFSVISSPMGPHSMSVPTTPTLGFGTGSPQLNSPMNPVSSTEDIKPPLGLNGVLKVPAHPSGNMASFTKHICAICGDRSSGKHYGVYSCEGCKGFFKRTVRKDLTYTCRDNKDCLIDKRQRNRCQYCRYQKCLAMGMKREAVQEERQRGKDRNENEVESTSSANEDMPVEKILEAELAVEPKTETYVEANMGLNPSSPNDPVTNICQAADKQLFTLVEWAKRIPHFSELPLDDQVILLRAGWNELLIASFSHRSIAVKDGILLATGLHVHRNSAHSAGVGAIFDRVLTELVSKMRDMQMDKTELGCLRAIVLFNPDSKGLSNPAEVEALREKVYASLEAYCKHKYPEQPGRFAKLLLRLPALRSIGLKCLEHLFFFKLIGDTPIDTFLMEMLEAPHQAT
Experimental: (§1) It also could not be secondary to induction of SREBP-1c, because oxysterols that block SREBP processing still induced Mylip expression (FIG. 6B). LXRs activate target genes by binding to consensus elements (LXREs) in their promoters. We identified an LXRE approximately 2.5 kb upstream of the mouse Mylip translation start site (FIG. 6C) and generated a reporter construct encompassing this region.
(§2) A 10 Kb promotor region upstream of the mMylip transcription initiation site was analyzed for the presence of LXR binding elements. A consensus DR4 site was identified 2454 upstream of the transcription initiation site. Olignoucleotides encompassing this element were designed, annealed and tested for binding to LXR/RXR heterodimers in a standard EMSA assay. A 2.5 kB promotor fragment upstream of the transcription initiation site containing the identified LXRE was amplified by PCR from BAC clone RP23-17N24 using mMylip-prom-FWD […] (SEQ ID NO:20) or mMylip-prom-ΔFWD […] (SEQ ID NO:21) with the common antisense primer mMylip-prom-REV […] (SEQ ID NO:22). Amplified fragments were cloned as SacI/XhoI fragments into pGL3 basic (Promega). Promotor analysis was done as previously described (Joseph et al. (2002) J Biol Chem 277: 11019).

[2] = molecular target: T1, LXR/RXR heterodimer (LXRalpha …); experiment: EMSA; no binding to mutant LXRE; settings: label: radiolabeled
Experimental: as §1, §2

B1: Mylip WT DR4 LXRE (dsDNA)
DNA 1: TCCCTACTTAACCTACAATGACCTCAAGTTTC
DNA 2: GAAACTTGAGGTCATTGTAGGTTAAGTAGGGA
binding result [1]: binds

B2: Mylip MUT DR4 LXRE (dsDNA)
DNA 1: TCCCTACTTATTCTACAATGTTCTCAAGTTTC
DNA 2: GAAACTTGAGAACATTGTAGAATAAGTAGGGA
binding result [2]: no binding

From patent publication US20140072580, “NOVEL TARGETS FOR TREATMENT OF HYPERCHOLESTEROLEMIA” (THE REGENTS OF THE UNIVERSITY OF CALIFORNIA, published 2014)
